# Reference: PMC5647379
# Tests used:
# [1] = molecular target: dansylated calmodulin (D-CaM, 5-(dimethylamino)naphtalene-1-sulfonyl-calmodulin) (rat) (UniProt P0DP29); assay: other fluorescence titration; D-CaM 12.5 nM in the cuvette, increasing concentrations of GST-fusion protein; no Ca2+ (EGTA 10 mM); Tris-HCl 25 mM pH 7.4, KCl 120 mM, NaCl 5 mM, MgCl2 2 mM; 25 °C; apparent affinity (EC50 of a Hill fit to the fluorescence enhancement)
# [2] = molecular target: dansylated calmodulin (D-CaM, 5-(dimethylamino)naphtalene-1-sulfonyl-calmodulin) (rat) (UniProt P0DP29); assay: dansyl-CaM fluorescence time course; D-CaM 12.5 nM in a stirred cuvette, emission at 500 nm against time; wt protein (400 nM) added, or one mutant (400 nM) and two minutes later the other mutant (400 nM); also 50 and 100 nM; Fluorescence buffer with or without Ca2+; 25 °C and 37 °C
# [3] = molecular target: Fluorescent dansylated CaM (D-CaM, 5-(dimethylamino)naphtalene-1-sulfonyl-calmodulin) (rat) (UniProt P0DP29); assay: other fluorescence titration; increasing GST-fusion protein added to D-CaM (12.5 nM) in the cuvette; dansyl fluorescence enhancement, Hill fit, apparent affinity (EC50); 25 °C; Fluorescence buffer with 9.63 mM Ca2+ added (3.9 µM free Ca2+)
# [4] = molecular target: Fluorescent dansylated CaM (D-CaM, 5-(dimethylamino)naphtalene-1-sulfonyl-calmodulin) (rat) (UniProt P0DP29); assay: other fluorescence titration; increasing GST-fusion protein added to D-CaM (12.5 nM) in the cuvette; dansyl fluorescence enhancement, Hill fit, apparent affinity (EC50); 25 °C; Tris-HCl 25 mM pH 7.4, KCl 120 mM, NaCl 5 mM, MgCl2 2 mM, EGTA 10 mM; without Ca2+
# [5] = molecular target: dansylated calmodulin (D-CaM, 5-(dimethylamino)naphtalene-1-sulfonyl-calmodulin) (rat) (UniProt P0DP29); assay: other fluorescence titration; D-CaM 12.5 nM in the cuvette, increasing concentrations of GST-fusion protein; no Ca2+ (EGTA 10 mM); Tris-HCl 25 mM pH 7.4, KCl 120 mM, NaCl 5 mM, MgCl2 2 mM; 25 °C; apparent affinity (EC50 of a Hill fit to the fluorescence enhancement); remark: listed apart in the source
# [6] = molecular target: dansylated calmodulin (D-CaM, 5-(dimethylamino)naphtalene-1-sulfonyl-calmodulin) (rat) (UniProt P0DP29); assay: other fluorescence titration; as a2 but with an excess of free Ca2+ (3.9 µM; 9.63 mM Ca2+ added to the Fluorescence buffer); apparent affinity (EC50)
# [7] = molecular target: mTurquoise2-Kv7.2-ABCD (residues 310-653) (human); assay: FRET or BRET; equimolar mixtures (500 nM or 2.5 µM each) of purified CFP-ABCD/CaM (donor) and YFP-ABCD/CaM (acceptor) complexes; FRET index followed over time; KCl 120 mM, Hepes 50 mM, NaCl 5 mM, EGTA 5 mM, with or without Ca2+
substance,measurement,setting,value
ABCD# (equimolar mixture of ABCD-A343D and ABCD-S511D),EC50,[1],45.5 nM
same,half-time in the trans-binding assay (400 nM),[2],6.5 min
same,"time to reach the half-maximal D-CaM fluorescence signal (400 nM, 25 °C)",[2],12 min
same,"time to reach the half-maximal D-CaM fluorescence signal (400 nM, 37 °C)",[2],9.2 min
ABCD# (equimolar mixture of GST-ABCD-S511D and GST-ABCD-A343D of Kv7.2),EC50,[3],78.5 nM
ABCD#-L609R (equal mixture of helix A and helix B mutants of ABCD carrying L609R),EC50,[1],120 nM
ABCD#-L609R (equimolar mixture of GST-ABCD-S511D-L609R and GST-ABCD-A343D-L609R of Kv7.2),EC50,[4],119 nM
same,EC50,[3],173 nM
GST-Kv7.2 ABCD (helices ABCD fused to GST) (domain or fragment),EC50,[5],9.2 nM
same,EC50,[1],9.1 nM
same,EC50,[6],15.1 nM
mCitrine-Kv7.2-ABCD (residues 310-653) (domain or fragment),time to reach half maximal FRET (2.5 µM donor and acceptor),[7],6.9 min
same,time to reach the half maximal FRET index (500 nM mixture),[7],12.2 min
